Test results published in article PMC5876120 (2019).

B1: Caspr2 ECD (protein)
chain: APSTSQKCDEPLVSGLPHVAFSSSSSISGSYSPGYAKINKRGGAGGWSPSDSDHYQWLQVDFGNRKQISAIATQGRYSSSDWVTQYRMLYSDTGRNWKPYHQDGNIWAFPGNINSDGVVRHELQHPIIARYVRIVPLDWNGEGRIGLRIEVYGCSYWADVINFDGHVVLPYRFRNKKMKTLKDVIALNFKTSESEGVILHGEGQQGDYITLELKKAKLVLSLNLGSNQLGPIYGHTSVMTGSLLDDHHWHSVVIERQGRSINLTLDRSMQHFRTNGEFDYLDLDYEITFGGIPFSGKPSSSSRKNFKGCMESINYNGVNITDLARRKKLEPSNVGNLSFSCVEPYTVPVFFNATSYLEVPGRLNQDLFSVSFQFRTWNPNGLLVFSHFADNLGNVEIDLTESKVGVHINITQTKMSQIDISSGSGLNDGQWHEVRFLAKENFAILTIDGDEASAVRTNSPLQVKTGEKYFFGGFLNQMNNSSHSVLQPSFQGCMQLIQVDDQLVNLYEVAQRKPGSFANVSIDMCAIIDRCVPNHCEHGGKCSQTWDSFKCTCDETGYSGATCHNSIYEPSCEAYKHLGQTSNYYWIDPDGSGPLGPLKVYCNMTEDKVWTIVSHDLQMQTPVVGYNPEKYSVTQLVYSASMDQISAITDSAEYCEQYVSYFCKMSRLLNTPDGSPYTWWVGKANEKHYYWGGSGPGIQKCACGIERNCTDPKYYCNCDADYKQWRKDAGFLSYKDHLPVSQVVVGDTDRQGSEAKLSVGPLRCQGDRNYWNAASFPNPSSYLHFSTFQGETSADISFYFKTLTPWGVFLENMGKEDFIKLELKSATEVSFSFDVGNGPVEIVVRSPTPLNDDQWHRVTAERNVKQASLQVDRLPQQIRKAPTEGHTRLELYSQLFVGGAGGQQGFLGCIRSLRMNGVTLDLEERAKVTSGFISGCSGHCTSYGTNCENGGKCLERYHGYSCDCSNTAYDGTFCNKDVGAFFEEGMWLRYNFQAPATNARDSSSRVDNAPDQQNSHPDLAQEEIRFSFSTTKAPCILLYISSFTTDFLAVLVKPTGSLQIRYNLGGTREPYNIDVDHRNMANGQPHSVNITRHEKTIFLKLDHYPSVSYHLPSSSDTLFNSPKSLFLGKVIETGKIDQEIHKYNTPGFTGCLSRVQFNQIAPLKAALRQTNASAHVHIQGELVESNCGASPLTLSPMSSATDPWHLDHLDSASADFPYNPGQGQAIRNGVNRNSA
B2: contactin-2 ECD (protein)
chain: SQTTFGPVFEDQPLSVLFPEESTEEQVLLACRARASPPATYRWKMNGTEMKLEPGSRHQLVGGNLVIMNPTKAQDAGVYQCLASNPVGTVVSREAILRFGFLQEFSKEERDPVKAHEGWGVMLPCNPPAHYPGLSYRWLLNEFPNFIPTDGRHFVSQTTGNLYIARTNASDLGNYSCLATSHMDFSTKSVFSKFAQLNLAAEDTRLFAPSIKARFPAETYALVGQQVTLECFAFGNPVPRIKWRKVDGSLSPQWTTAEPTLQIPSVSFEDEGTYECEAENSKGRDTVQGRIIVQAQPEWLKVISDTEADIGSNLRWGCAAAGKPRPTVRWLRNGEPLASQNRVEVLAGDLRFSKLSLEDSGMYQCVAENKHGTIYASAELAVQALAPDFRLNPVRRLIPAARGGEILIPCQPRAAPKAVVLWSKGTEILVNSSRVTVTPDGTLIIRNISRSDEGKYTCFAENFMGKANSTGILSVRDATKITLAPSSADINLGDNLTLQCHASHDPTMDLTFTWTLDDFPIDFDKPGGHYRRTNVKETIGDLTILNAQLRHGGKYTCMAQTVVDSASKEATVLVRGPPGPPGGVVVRDIGDTTIQLSWSRGFDNHSPIAKYTLQARTPPAGKWKQVRTNPANIEGNAETAQVLGLTPWMDYEFRVIASNILGTGEPSGPSSKIRTREAAPSVAPSGLSGGGGAPGELIVNWTPMSREYQNGDGFGYLLSFRRQGSTHWQTARVPGADAQYFVYSNESVRPYTPFEVKIRSYNRRGDGPESLTALVYSAEEEPRVAPTKVWAKGVSSSEMNVTWEPVQQDMNGILLGYEIRYWKAGDKEAAADRVRTAGLDTSARVSGLHPNTKYHVTVRAYNRAGTGPASPSANATTMKPPPRRPPGNISWTFSSSSLSIKWDPVVPFRNESAVTGYKMLYQNDLHLTPTLHLTGKNWIEIPVPEDIGHALVQIRTTGPGGDGIPAEVHIVRNGGTSMMVEN

Key:
contactin-2 ECD = molecular target: B2; assay: solid phase binding assay
Caspr2 ECD = molecular target: B1; assay: solid phase binding assay

For B1, the Kd (contactin-2 ECD) was 12 nM.

For B2, the Kd (Caspr2 ECD) was 15 nM.
